Measurements published in US20170009288, “METHOD FOR CONTROLLED DNA FRAGMENTATION” (THERMO FISHER SCIENTIFIC BALTICS UAB, published 2017).

B1: Control native Mu transposon end (dsDNA)
DNA 1: GTTTTCGCATTTATCGTGAAACGCTTTCGCGTTTTTCGTGCGTCAGTTCA
DNA 2: TGCTGAACTGACGCACGAAAAACGCGAAAGCGTTTCACGATAAATGCGAAAAC
B2: Transposon No. 9 (dsDNA)
DNA 1: GTTCTCGCATCTATCGTGAAAAGCTTCTCCGTTCTTCGGCCGCCGCTTCA
DNA 2: TGCTGAAGCGGCGGCCGAAGAACGGAGAAGCTTTTCACGATAGATGCGAGAAC

Tests used:
[1] = molecular target: T1, MuA transposase (UniProt P07636 P07636:1-663); test: EMSA; strong complex; 2% agarose with BSA and heparin, 1xTBE; assembled 30 C 1 h; details: tags: Thermo Scientific F-750 (stand-alone MuA transposase); chain copies: 4; 5' overhang TGCT side of non-transferred strand
Experimental: (§1) In parallel, EMSA analysis was performed for all pre-formed MuA-transposon complexes used in the first experiment (Table 3). DNA shifts resulting from transposome complex formation were analyzed using agarose gel electrophoresis in 2% agarose gel containing 87 μg/ml BSA and 87 μg/ml heparin in 1×TBE buffer. DNA was stained with ethidium bromide. […] Weaker complexes were formed with transposons No. 5, 10, 11.

[2] = molecular target: T1, MuA transposase; test: EMSA; no apparent complex formation; details: tags: Thermo Scientific F-750 (stand-alone MuA transposase); chain copies: 4
Experimental: as §1

T1 sequence (P07636 whole entry, one chain of several): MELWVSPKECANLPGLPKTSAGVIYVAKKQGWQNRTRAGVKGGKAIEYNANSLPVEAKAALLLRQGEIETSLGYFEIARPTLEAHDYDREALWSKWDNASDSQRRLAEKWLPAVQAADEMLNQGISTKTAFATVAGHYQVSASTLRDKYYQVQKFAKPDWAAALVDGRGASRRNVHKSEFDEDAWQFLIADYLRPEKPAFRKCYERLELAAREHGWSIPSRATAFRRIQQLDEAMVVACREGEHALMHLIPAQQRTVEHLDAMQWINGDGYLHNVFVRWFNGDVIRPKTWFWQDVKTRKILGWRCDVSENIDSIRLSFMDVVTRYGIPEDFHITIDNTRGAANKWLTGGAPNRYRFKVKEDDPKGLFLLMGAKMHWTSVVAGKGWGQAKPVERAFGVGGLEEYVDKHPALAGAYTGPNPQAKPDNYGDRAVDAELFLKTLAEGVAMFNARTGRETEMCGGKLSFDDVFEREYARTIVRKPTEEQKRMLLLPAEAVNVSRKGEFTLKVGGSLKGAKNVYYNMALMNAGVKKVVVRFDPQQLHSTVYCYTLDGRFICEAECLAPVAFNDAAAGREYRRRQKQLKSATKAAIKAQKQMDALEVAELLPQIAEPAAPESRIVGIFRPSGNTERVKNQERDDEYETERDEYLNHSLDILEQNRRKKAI

| Binder | binding result [1] | binding result [2] |
| --- | --- | --- |
| B1 | binds |  |
| B2 |  | no binding |
